Measurements as given in the supplement of paper PMC12764529.
± gives the half width of the 95% confidence interval.

test: folding stability dG unfold from chymotrypsin proteolysis; higher = more stable
How it was run: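 Mini-proteins designed to be under 80 residues and free of cysteine were carried in a PA-tagged cDNA display construct and digested with trypsin and with chymotrypsin. Each protease was applied at 11 threefold-diluted concentrations, alongside a no-protease condition, before sequencing. K50 came from Bayesian fitting of the sequencing counts, and unfolding free energy was obtained by comparing it with a sequence-predicted unfolded-state K50 and a shared folded-state K50, for each protease separately or for both together. Designs were retained only if their AlphaFold2 dimer inter-PAE exceeded 15.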

| Sequence | folding stability dG unfold |
| --- | --- |
| SPLELPSDEEITVNAEVLILPYNPETGEIEDEIPIPLPVKIKVKKDGSVEIEIDIPDSIPENVPIVLLLKSA [r9_90_TrMRF] | 1.81 ± 0.14 kcal/mol |
| SAMLKLEITLPDGTVVEVEIPLERPVPPAGEEEALAAAEAVREAVAAALGLEDAEVTMEVEEVSPEELLSAG [r14_378_JUSTAS] | 1.03 ± 0.051 kcal/mol |
| SAGGSAGGSAGGSMKNVPVTVEGSSSVVPLPDGSPVTVTELTTTTLGENGEVSTSTTVVSSAGGSAGGSAGG [r11_817_JUSTAS] | 1.34 ± 0.039 kcal/mol |
| SMKTLIVEGMTPEEIRALAEEAAKKGEEVEIEIVVKDNEEIKEALEEAGVEVEEVEDPETKEKVLKVTVKSA [r9_759_TrROS_Hall] | 0.412 ± 0.072 kcal/mol |
| SAMKFKKGAKIEIEVEKVEEKEIDGKTVAVYRMKIKIEVDGKKYEIEVEIYYDKETKEWKIVKVEIKEVSAG [r14_293_TrROS_Hall] | 3.13 ± 0.046 kcal/mol |
| SANDAMRKMMENMSPEDMMEMVRPPVPPPPVVTIRVPIEDLPKFLQWLSEEFGVEIEREDGYLYITVTASAG [r14_7_TrROS] | 1.48 ± 0.034 kcal/mol |
| SKKVTLPIRFPWNGWEIEITAEELAEKKGLDPEDLTIHVVMPGPGWMYTIKIDPDGIEIEPIGPVPPNDMSA [r9_819_TrROS] | 2.951 ± 0.026 kcal/mol |
| SAGGSAGGSKNVKTVTIPFNNMSPSKFIEQIKNHPVDAIEIEMPDPWYRRFLNWLKDEGIKVISAGGSAGGS [r12_610_TrROS] | 1.49 ± 0.18 kcal/mol |
| SAGGEIEIVVETPEDLEKAKELAEELAKALEEAGLEIEEVKVELVEETVVNEDGEEKKRYVLKITFPSAGGS [r16_591_TrROS_Hall] | 3.24 ± 0.086 kcal/mol |
| SAGGSAGGSAGEEKEYRIVVPFDSDDPEAFVRAVFDGIPPDVPIKAIDFNPELGYGVVVASAGGSAGGSAGG [r11_698_TrMRF] | 1.07 ± 0.072 kcal/mol |
| SATKEIEIEVNGRKLRIRIERKEDGSIKITIELPGMSAEEVKEALRKLLPPDAKITVDEITVTEYREEPSAG [r14_370_TrROS_Hall] | 2.43 ± 0.17 kcal/mol |
| SAGGSAGGMTAVEVKEETVPITLTSSFFPGGVPVPGAAVSTITITTTTTIEPPTGKTVKVTVAGSAGGSAGG [r6_424_JUSTAS] | -0.658 ± 0.12 kcal/mol |
| SGSFKLLKVEEHPDNPSITAVLTFPDGSTATLRFRPDGSWTGYVESTGKPFTAVSGENELKLFVPEELTLSA [r9_233_TrMRF] | 0.319 ± 0.14 kcal/mol |
| SAGGSAGGMKVKIKLGPGEEVEIEVVEDKETNKLYFKIVNKKTKKVYVFETLEEAKNMSLEELLSAGGSAGG [r6_739_TrROS_Hall] | 3.73 ± 0.07 kcal/mol |
| SAGGSAGGGMPISISITVTLSDGTVLEFTVTVPENAPDPASVAAALAAEIKAAHPDVAVTFTPASAGGSAGG [r6_132_JUSTAS] | 1.72 ± 0.025 kcal/mol |
| SAGSYKLVVKAKAPKGPARIRVFVRLPGGEEKPVAEAEVGSGEVADIEITFPSGKPIDPKNIRVEIVPPSAG [r5_287_TrMRF] | 1.65 ± 0.066 kcal/mol |

| Sequence | folding stability dG unfold |
| --- | --- |
| SADYVLYLVTLKVRRKVGDKEYELEVPLLILAPEDELDESEIEAIAREAAAELGAEVEEVKIERLPLNASAG [r14_278_TrMRF] | 4.88 ± 0.086 kcal/mol |
| SAGGSAGGPNIRIIIKPDPENGTLKIWFVHPEPGRIQKYEFNMNGKWKIKEPVGPMKPGDPGLLSAGGSAGG [r6_149_TrROS] | 1.52 ± 0.33 kcal/mol |
| SAGGSAMSKDVLFENGARITKFFPGKNYVIIETSPENPELLKELGITVIKEGPNRIIVPAKDFLDESAGGSA [r15_984_TrMRF] | -0.821 ± 0.78 kcal/mol |
| PETVTLTVEIEIEVRGPDGKPLTPEQVEELAKALAEELAAELGLEVEVTVTVEPVGPDGKYRITVTVTIRPS [r1_231_TrROS_Hall] | 5.69 ± 0.86 kcal/mol |
| SAGGSAGGSAGGLPEGWVLKTETKTVKLKVKVKVDGKEYEFEVEVKVTRIELVPKEELESAGGSAGGSAGGS [r10_300_TrROS_Hall] | 4.08 ± 0.2 kcal/mol |
| SAGGSATQVVLKITIKINKGEKEETREIVLPATDPEEAIAKVKKELKEKGIDAEIEELEILPVDLLSAGGSA [r15_165_JUSTAS] | 0.919 ± 0.059 kcal/mol |
| SAMVLRLVVTVTGKIGDSLSTTTITREVSLEEYSEEELEALAEAVADAIRAANPEATVSLSILPEEELESAG [r14_723_JUSTAS] | 2.565 ± 0.02 kcal/mol |
| SAGGKTIMIMFTPDNAEEIAETIVDEFGYDVKIEKVQPMPMKDPDGKQKAPYYMIEIEIKVPDPGQPLSAGG [r13_943_TrROS] | -0.282 ± 0.22 kcal/mol |
| SAGMVIKVEVIYNGKKYTIEISEEQLKELLEKLKPGDEVEIEINGEKVLVRVEVVEPPEPSEEELKALKSAG [r5_669_TrROS_Hall] | 2.1 ± 0.2 kcal/mol |
| SAGGSAGGDKNAKPQPIMIAIEIYNPNGRKQEHTFPFESLDDAKEFIEDWLPPGYQVKVDIYPVSAGGSAGG [r6_290_TrROS] | 0.709 ± 0.07 kcal/mol |
| SAGGWEIVGSITIEHPNRPIIFPVFRDPEEGNVWVSIYRMDPENGKWQPIGVVPFPKGDAEDALDDISAGGS [r8_423_TrROS] | 1.86 ± 0.11 kcal/mol |
| SAGGIVPLPNGHWVIMAQFEVDEGQTVDDAPEFAREIAKTFGIKPTQVQVDPEKGYVNVAIKIPPGALSAGG [r13_178_TrROS] | 0.263 ± 0.35 kcal/mol |
| SAGGSAGGSAGSITLPDGLTLTWNPATNTLTITLTAPPPPTTTTTTKPAATTTTTTTTTTSAGGSAGGSAGG [r11_331_TrROS_Hall] | 1.77 ± 0.092 kcal/mol |
| SAELIEALKKAGYRIKIEVEVTEVRVVRNEDGELKVEAKIKVKIEIEPLPPPPPPLSLEDLLDKNGKLVSAG [r14_569_TrROS_Hall] | 3.3 ± 0.13 kcal/mol |
| SAGGSAKFKLEATPLEDGTLIIPIEIEVTVEKPFPDPNGIPKIKPVKKKFRFLIIKDGDEIKIFLGSAGGSA [r15_883_TrMRF] | 2.66 ± 0.097 kcal/mol |
